Data from paper PMC4987395.

Target: Arabidopsis thaliana plasmodesmata-located protein 1 (PDLP1) fused to RFP (Arabidopsis thaliana) (UniProt Q8GXV7)
Assay: FRET or BRET; FRET-FLIM: GFP on the MP as donor, RFP on PDLP1 as acceptor; co-expressed by agroinfiltration in N. benthamiana leaves, measured at spots in plasmodesmata; donor fluorescence lifetime by time-correlated single-photon counting

Chain of UniProt Q8GXV7 (Q8GXV7 22-303): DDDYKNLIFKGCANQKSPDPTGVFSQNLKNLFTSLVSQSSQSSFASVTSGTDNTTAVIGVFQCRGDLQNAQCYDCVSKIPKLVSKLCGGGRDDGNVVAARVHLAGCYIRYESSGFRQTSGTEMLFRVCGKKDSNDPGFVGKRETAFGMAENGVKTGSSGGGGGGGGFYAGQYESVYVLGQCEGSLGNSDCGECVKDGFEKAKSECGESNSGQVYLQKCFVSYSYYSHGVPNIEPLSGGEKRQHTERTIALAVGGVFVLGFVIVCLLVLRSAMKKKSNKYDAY

Substance	FRET efficiency [%]
grapevine fanleaf virus (GFLV) 2B movement protein with GFP fused at its N-terminus (natural protein)	6.7
cowpea mosaic virus (CPMV) movement protein (48K) fused at its C-terminus to GFP (natural protein)	7.5
